Tests used:
[1] = target: T1, rHuman IGF-1 sR, CF (R&D Systems Cat#391-GR) (human, UniProt P08069 31-932); test: ECL Multispot (MSD) assay, antigen spotted on plate, 10 nM Fab; blank spot of this row 182
T1 construct: Bought soluble receptor; The column head prints only 'IGF-1'; also called insulin-like growth factor-1 soluble receptor

[2] = target: T2, rHuman P-Cadherin/Fc Chimera, CF (R&D Systems Cat#861-PC) (human, UniProt P22223 108-654); test: as above
T2 construct: Bought reagent; Fc part of the bought chimera not given

[3] = target: T3, rHuman Erythropoietin R/Fc Chimera, CF (R&D Systems Cat#963-ER) (human, UniProt P19235 25-250); test: as above
T3 construct: Bought reagent; also called EPO R; EPO R/Fc; Fc part of the bought chimera not given
T3 sequence (looked up): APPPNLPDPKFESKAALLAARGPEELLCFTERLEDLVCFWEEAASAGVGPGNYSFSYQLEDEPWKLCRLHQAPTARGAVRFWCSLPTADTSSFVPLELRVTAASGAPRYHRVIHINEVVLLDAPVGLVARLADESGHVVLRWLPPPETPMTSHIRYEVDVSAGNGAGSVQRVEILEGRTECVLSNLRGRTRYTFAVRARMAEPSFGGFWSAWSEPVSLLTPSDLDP

[4] = target: T4, rHuman ErbB2/Fc Chimera, CF (R&D Systems Cat#1129-ER) (human, UniProt P04626 23-652); test: as above
T4 construct: Bought reagent; also called human epidermal growth factor 2 receptor; Fc part of the bought chimera not given

[5] = target: T5, rHuman EGF R/Fc Chimera, CF (R&D Systems Cat#344-ER) (human, UniProt P00533 25-645); test: as above
T5 construct: Bought reagent; also called epidermal growth factor receptor; Fc part of the bought chimera not given

[6] = target: T6, rHuman HGF R/c-MET/Fc Chimera, CF (R&D Systems Cat#358-MT/CF) (human, UniProt P08581 25-932); test: as above
T6 construct: Bought reagent; also called HGF R/Fc; hepatocyte growth factor receptor; Fc part of the bought chimera not given

[7] = target: T7, rHuman Notch-1/Fc Chimera, CF (R&D Systems Cat#3647-TK) (human, UniProt P46531 19-526); test: as above
T7 construct: Bought reagent; Fc part of the bought chimera not given

[8] = target: T8, rHuman CD44/Fc Chimera, CF (R&D Systems Cat#3660-CD) (human, UniProt P16070 21-220); test: as above
T8 construct: Bought reagent; Fc part of the bought chimera not given

[9] = target: T9, Recombinant Human DLL4 (R&D Systems Cat#1506-D4/CF) (human, UniProt Q9NR61 27-524); test: MSD Multispot ECL, antigen spotted on plate, Fab at 120 nM; blank spot 363
T9 construct: Bought recombinant protein; also called rHuman DLL4; delta-like protein 4

[10] = target: T10, rHuman Notch-1/Fc Chimera, CF (R&D Systems Cat#3647-TK) (human, UniProt P46531 19-526); test: as above
T10 construct: Bought Fc chimera; Fc part of the bought chimera not given

[11] = target: T11, rHuman CD44/Fc Chimera, CF (R&D Systems Cat#3660-CD) (human, UniProt P16070 21-220); test: as above
T11 construct: Bought Fc chimera; Fc part of the bought chimera not given

[12] = target: T12, rHuman P-Cadherin/Fc Chimera, CF (R&D Systems Cat#861-PC) (human, UniProt P22223 108-654); test: as above
T12 construct: Bought Fc chimera; Fc part of the bought chimera not given

[13] = target: T13, rHuman Erythropoietin R/Fc Chimera, CF (R&D Systems Cat#963-ER) (human, UniProt P19235 25-250); test: as above
T13 construct: Bought Fc chimera; also called EPO R/Fc; Epo R; Fc part of the bought chimera not given
T13 sequence (looked up): T3 sequence (looked up)

[14] = target: T9, Recombinant Human DLL4 (R&D Systems …); test: MSD Multispot ECL, antigen spotted on plate, Fab at 480 nM; blank spot 362
[15] = target: T10, rHuman Notch-1/Fc Chimera, CF (R&D …); test: as above
[16] = target: T11, rHuman CD44/Fc Chimera, CF (R&D Systems …); test: as above
[17] = target: T12, rHuman P-Cadherin/Fc Chimera, CF (R&D …); test: as above
[18] = target: T13, rHuman Erythropoietin R/Fc Chimera, CF …; test: as above
[19] = target: T14, rHuman HGF R/c-MET/Fc Chimera, CF (R&D Systems Cat#358-MT/CF) (human, UniProt P08581 25-932); test: ECL multispot (MSD) assay, spotted antigen; Fab 0.20 (head prints uM)
T14 construct: Bought recombinant protein; also called HGF R/Fc; Fc part of the bought chimera not given

B1: Fab VH1-46_IGHD6-6*01_IGHJ1*01 S102A/S103P/S104F (APF) & L6_IGKJ1*01 (Fab, V domains shown)
VH: QVQLVQSGAEVKKPGASVKVSCKASGYTFTSYYMHWVRQAPGQGLEWMGIINPSGGSTSYAQKFQGRVTMTRDTSTSTVYMELSSLRSEDTAVYYCAREEYAPFSAEYFQHWGQGTLVTVSS
VL: not shown
notes: Tested as a Fab made in E. coli; also called H:APF & L:wt; APF triple mutant
[1]
  ECL signal: 344
[2]
  ECL signal: 449
[3]
  ECL signal: 222
[4]
  ECL signal: 221
[5]
  ECL signal: 296
[6]
  ECL signal: 319
[7]
  ECL signal: 251
[8]
  ECL signal: 221

B2: Fab VH6-1_IGHD3-3*01_IGHJ4*01 & V4-3_IGLJ4*01 (Fab, V domains shown)
VH: QVQLQQSGPGLVKPSQTLSLTCAISGDSVSSNSAAWNWIRQSPSRGLEWLGRTYYRSKWYNDYAVSVKSRITINPDTSKNQFSLQLNSVTPEDTAVYYCAREYYDFWSGYYTDYFDYWGQGTLVTVSS
VL: QPVLTQPTSLSASPGASARLTCTLRSGINLGSYRIFWYQQKPESPPRYLLSYYSDSSKHQGSGVPSRFSGSKDASSNAGILVISGLQSEDEADYYCMIWHSSASFVFGGGTQLIIL
notes: Tested as a purified germline Fab made in E. coli; The VH was cloned into plasmid A (CH1 constant region, His6 and Flag tags) and the lambda VL into plasmid E (lambda CL)
[9]
  ECL signal: 938
[10]
  ECL signal: 472
[11]
  ECL signal: 442
[12]
  ECL signal: 450
[13]
  ECL signal: 431
[14]
  ECL signal: 1530
[15]
  ECL signal: 545
[16]
  ECL signal: 541
[17]
  ECL signal: 596
[18]
  ECL signal: 621

B3: Fab VH5-51_IGHD5-18*01>3_IGHJ4*01 G100K/G104T & V3-4_IGLJ1*01 (Fab, V domains shown)
VH: EVQLVQSGAEVKKPGESLKISCKGSGYSFTSYWIGWVRQMPGKGLEWMGIIYPGDSDTRYSPSFQGQVTISADKSISTAYLQWSSLKASDTAMYYCARRKYSYTYDYFDYWGQGTLVTVSS
VL: QTVVTQEPSFSVSPGGTVTLTCGLSSGSVSTSYYPSWYQQTPGQAPRTLIYSTNTRSSGVPDRFSGSILGNKAALTITGAQADDESDYYCVLYMGSGISYVFGTGTKVTVL
notes: Tested as a Fab; The constant parts are the same as for the parent Fab (CH1 with His6/Flag tags, lambda CL); also called KT double mutant; H:KT
[19]
  ECL signal/noise ratio: 2.4

— patent publication US20120316071A1 (published 2012)
